What was measured:
[1] = molecular target: T1, HLA-A*02:01 expressed on the surface of cancer cells (human); test: summary table, column MHC-1 display at 4 C
T1 construct: whole, on cells; also called cell-surface HLA-A*02:01; HLA-A2

[2] = molecular target: T1, HLA-A*02:01 expressed on the surface of …; test: flow cytometry, MDA-MB-231 cells (4 °C scheme of FIG. 9a), detection with C1-17
[3] = molecular target: T2, CMVp495-503/HLA-A*02:01 complex (cytomegalovirus (CMV); human); test: flow cytometry, cancer cells pulsed with CMVp495-503 peptide, anti-mouse Fc secondary
T2 construct: whole, on cells; also called CMV peptide-MHC-I complex
Method: A negative control group not treated with peptide was added with DMSO. After 3 hours, centrifugation was performed at 1300 rpm for 3 minutes to remove the supernatant containing the peptide not bound to the cells, and the cells were washed with a FACS buffer and centrifuged at 1300 rpm for 3 minutes to remove the supernatant. […] After each sample was washed with 1 ml of a FACS buffer, a F(ab′)₂ antibody that specifically recognizes Alexa647 (red fluorescence)-conjugated mouse Fc was diluted 1:1200 in 100 μl of a FACS buffer, followed by reaction at 4° C. for 30 minutes. The cells were washed with 1 ml of a FACS buffer and then analyzed through flow cytometry.

Binder | binding result [3] | other results
inCT99†CMVp480-503 fusion antibody (antibody) heavy: not shown light: SDGVRQCRGDCFDGPLMGSSSNDIQMTQSPSSLSASVGDRVTITCKSSQSLLNSRDGKNYLAWYQQKPGKAPKLLIYDASNLETGVPSRFSGSGSGTDFTFTISSLQPEDIATYFCQQYWYWMYTFGGGTKVEIKRTVAAPSVFIFPPSDEQLKSGTASVVCLLNNFYPREAKVQWKVDNALQSGNSQESVTEQDSKDSTYSLSSTLTLSKADYEKHKVYACEVTHQGLSSPVTKSFNRGEC | – | binding result [1]: binds
inCT99†CMVp480-510 fusion antibody (antibody) heavy: not shown light: SDGVRQCRGDCFDGPLMGSSSNDIQMTQSPSSLSASVGDRVTITCKSSQSLLNSRDGKNYLAWYQQKPGKAPKLLIYDASNLETGVPSRFSGSGSGTDFTFTISSLQPEDIATYFCQQYWYWMYTFGGGTKVEIKRTVAAPSVFIFPPSDEQLKSGTASVVCLLNNFYPREAKVQWKVDNALQSGNSQESVTEQDSKDSTYSLSSTLTLSKADYEKHKVYACEVTHQGLSSPVTKSFNRGEC | – | binding result [2]: no binding
H9#1 TCR-like antibody (antibody, mouse IgG2a, kappa, V domains shown) VH: EVQLVQSGAEVKKPGSSVKVSCKASGGTFSSYAISWVRQAPGQGLEWMGGIIPIFGTANYAQKFQGRVTITADESTSTAYMELSSLRSEDTAVYYCARGDLYYYDSSGYPLWYMDYWGQGTLVTVSS VL: ETTLTQSPGTLSLSPGERATLSCRASQSVSSSYLAWYQQKPGQAPRLVIYGASSRATGIPDRFSGSGSGTDFTLTISRLEPEDFAVYYCQDYSTYPAFTFGQGTKLEIRR | binds | –
C1-17 TCR-like antibody (antibody, mouse IgG2a, kappa, V domains shown) VH: EVQLVQSGAEVKKPGSSVKVSCKASGGTFSSYAISWVRQAPGQGLEWMGSIIPIFGVAEYAHKFQGRVTITADESTSTAYMELSSLRSEDTAVYYCARGDLYYYDSSGYPLWYMDYWGQGTLVTVSS VL: ETTLTQSPGTLSLSPGERATLSCRASQSVSSSYLAWYQQKPGQAPRLVIYGASTRPTGIPDRFSGSGSGTDFTLTISRLEPEDFAVYYCQDYSTYPAFTFGQGTKLEIRR | binds | –
H9 TCR-like antibody (antibody, mouse IgG2a, kappa, V domains shown) VH: EVQLVQSGAEVKKPGSSVKVSCKASGGTFSSYAISWVRQAPGQGLEWMGGIIPIFGTANYAQKFQGRVTITADESTSTAYMELSSLRSEDTAVYYCARGDLYYYDSSGYPRYYFDYWGQGTLVTVSS VL: ETTLTQSPGTLSLSPGERATLSCRASQSVSSSYLAWYQQKPGQAPRLVIYGASSRATGIPDRFSGSGSGTDFTLTISRLEPEDFAVYYCQHYSTSPGFTFGQGTKLEIRR | binds | –

Source: patent US20230076637A1 (AJOU UNIVERSITY INDUSTRY ACADEMIC COOPERATION FOUNDATION, published 2023)
